Test results from article PMC8948278, “Antibody-dependent enhancement (ADE) of SARS-CoV-2 pseudoviral infection requires FcγRIIB and virus-antibody complex with bivalent interaction” (Communications Biology, 2022).

B1: KIH format bivalent MW05 (MW05/KIH) (antibody, V domains shown)
VH: EVQLVQSGAEVKKPGSSVKVSCKASGGTFSSYAISWVRQAPGQGLEWMGRIIPIFGSSNYAQKFQGRVTITADESTSTAYMELSSLRSEDTAVYYCAESPLGGGSGYSVSWFDPWGQGTLVTVSS
VL: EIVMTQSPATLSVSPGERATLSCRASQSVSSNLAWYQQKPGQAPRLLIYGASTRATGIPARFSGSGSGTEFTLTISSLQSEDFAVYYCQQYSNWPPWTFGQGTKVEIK
notes: also called knob-in-hole format bivalent mAb; copies: + + 2
B2: KIH format bivalent MW07 (MW07/KIH) (antibody, V domains shown)
VH: EVQLVESGGGLVQPGGSLRLSCAASGFTFSSYWMSWVRQAPGKGLEWVANIKQDASEKYYLDSLKGRFTISRDNAKNSLYLQMNSLRAEDTAVYYCARDLGILWFGDYPWGQGTLVTVSS
VL: DIQMTQSPSSLSASVGDRVTITCRASQGISNSLAWYQQKPGKAPKLLLYAASTLESGVPSRFSGSGSGTDFTLTISSLQPEDFATYYCQQFYSTPRTFGQGTKVEIK
notes: as for B1

Target: Recombinant SARS-CoV-2 S trimer protein (ACRO Biosystems SPN-C52H9) (SARS-CoV-2, Wuhan-Hu-1 (reference spike), UniProt P0DTC2)
Assay: SPR
Details: both partners purified

Binder | koff
B1 | 8.52e-05 s⁻¹
B2 | 3.02e-05 s⁻¹
